These results are taken from patent publication US20180186880A1 (TRELLIS BIOSCIENCE, published 2018).

T1: TIM-3 ECD (extracellular domain of T cell immunoglobulin and mucin domain 3 protein) (UniProt Q8TDQ0 22-202, limits assumed)
T1 construct: extracellular domain; also called CD366
T1 sequence (looked up): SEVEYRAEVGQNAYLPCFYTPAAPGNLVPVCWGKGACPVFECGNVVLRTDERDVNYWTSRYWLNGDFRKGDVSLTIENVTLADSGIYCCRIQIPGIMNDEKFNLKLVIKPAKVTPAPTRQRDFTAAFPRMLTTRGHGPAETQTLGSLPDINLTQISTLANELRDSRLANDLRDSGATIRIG

B1: TRL6061 (antibody, V domains shown)
VH: QVQLVESGGGVVQPGRSLRLSCAASGFMFSTSAMHWVRQTPGKGLEWLAVIWHDGSEKYYADSVKGRFSISRDNYRDTLYLQMNNLRVEDTAIYYCRGGDVYEIWGQGTMVAVSS
VL: DDIMLTQPPSVSVSPGQTARITCSGDAVAKRYVYWYQQKSGQAPVLVMYEDNKRPSGIPERFSGSSSGTKATLTITGALVEDEADYYCYSTDSSGNLGAFGGGSKLTVL
notes: Lambda light chain
B2: TRL6099 (antibody, V domains shown)
VH: QVQLVESGAEVKKPGASVKVSCKAFNYTFTSYGISWVRQTPEHGLEWMGWITNSNSNSAQKFQGRVSMTTDTSTSTAYMQLRSLSSDDTAVYYCARIYIDYNNYGLDVWGQGTTVTVSS
VL: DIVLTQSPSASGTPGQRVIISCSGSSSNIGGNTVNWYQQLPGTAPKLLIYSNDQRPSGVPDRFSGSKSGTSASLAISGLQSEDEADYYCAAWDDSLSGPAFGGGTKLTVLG
notes: Lambda light chain
B3: TRL6042 (antibody, V domains shown)
VH: QVQLVESGAEVKKPGESLKISCEGSGYKFTSYWIGWVRQMPGRGPEWMGLIYPSDSDTRYSPSFRGQVTISVDKTISTAYLQWSSLKTSDTAIYYCARLLLATECTSDSCFGDAFDIWGQGTMVTVSS
VL: DIVLTQSPTFLSASVGDRVTITCRASQGISSYLAWYQQKPGKAPKLLLYAASTLQSGVPSRFSGSRSGTEFTLTISSLQPEDFASYYCQQFHNYPFTFGGGTKVEIKR
notes: Native human mAb produced recombinantly; Kappa light chain; also called TIM-3 TRLmAb 6042
B4: TRL6120 (antibody, V domains shown)
VH: QVQLVESGGGVVQPGRSLRLSCVASGFIFRTYAMHWVRQAPGKGLEWVAVIWPDGSERYYSDSTKGRFTVSRDNSKNTLFLQMNSLRVDDTAMYYCFARGYSDSDYADHWGRGTRVTVSS
VL: DIVMTQSPSVSVSPGQTARITCSGDALSTKFAYWYQQKSGQAPVLVIYEDNKRPSGIPERFSGSGSGTMATLSVSEAQVEDEADYYCFSSDSSGNLFMFGGGTKLTVL
notes: Lambda light chain; also called TIM-3 TRLmAb 6120

The test addresses T1, TIM-3 ECD (extracellular domain of T …). Briefly: adsorption ELISA on TIM-3 ECD, serial dilutions of purified mAb, estimate of binding affinity. The procedure: Purified mAbs were tested in adsorption ELISA using TIM-3 ECD, generated by Trellis in mammalian cells.
With B1, the Affinity was 0.005 nM.
As for B2, the figure is 0.011 nM; as for B3, 5 nM.
Turning to B4, the Affinity is 28 nM.
